We go through one substance from publication PMC7325957.

Broadly, the stoichiometry N is the number of molecules, sites or subunits per partner or assembly.

This test concerns the target NttE from L. pneumophila strain 130b, His6-tagged (residues 1 to 269; minus its N-terminal signal sequence) (Legionella pneumophila strain 130b). Briefly: SEC-SAXS.

In turn, “NttE from L. pneumophila strain 130b, His6-tagged (residues 1 to 269; minus its N-terminal signal sequence) (natural protein)” showed a stoichiometry N of 2.
